This note sets out measurements from patent publication US20220144916A1 (University of Texas, published 2022).

Test [1] deals with T1, human FcγRIIIA, FLAG-tagged (human, UniProt P08637 17-208).
T1 construct: also called FcgRIIIa; FcγIIIA
Briefly: flow cytometry, yeast display of human IgG1 Fc, FcgR3A labeled with PE. In general terms: Flow cytometry measures light scatter and fluorescence of single cells or particles in a stream.

For test [2], the target named is T2, HCMV viral Fcγ receptor gp34 (residues 24-182), soluble, strep and FLAG tags (human cytomegalovirus AD169, UniProt P16809 24-182).
T2 construct: range 24-182
T2 sequence: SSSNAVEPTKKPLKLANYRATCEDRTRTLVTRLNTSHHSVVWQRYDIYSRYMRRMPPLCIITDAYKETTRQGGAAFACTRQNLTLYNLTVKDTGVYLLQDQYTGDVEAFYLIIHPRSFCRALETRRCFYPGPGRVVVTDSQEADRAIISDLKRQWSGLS
Put plainly: flow cytometry, yeast display of human IgG1 Fc, Gp34 plus anti-FLAG PE.

In test [3] the target is human FcRn, FLAG-tagged (human, UniProt P55899 24-297; P61769 21-119). Briefly: flow cytometry, yeast display of human IgG1 Fc, FcRn at low pH, PE detection.
human FcRn, FLAG-tagged, sequence (P55899 24-297 limits assumed, chain 1 of 2): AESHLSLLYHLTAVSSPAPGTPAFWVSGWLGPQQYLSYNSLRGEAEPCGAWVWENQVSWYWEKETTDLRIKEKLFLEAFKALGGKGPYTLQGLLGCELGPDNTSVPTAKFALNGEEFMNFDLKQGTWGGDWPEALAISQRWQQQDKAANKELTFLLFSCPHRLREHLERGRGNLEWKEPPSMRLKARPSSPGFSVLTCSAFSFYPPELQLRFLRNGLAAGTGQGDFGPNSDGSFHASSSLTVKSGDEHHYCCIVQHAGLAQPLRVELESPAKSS
human FcRn, FLAG-tagged, sequence (P61769 21-119 limits assumed, chain 2 of 2): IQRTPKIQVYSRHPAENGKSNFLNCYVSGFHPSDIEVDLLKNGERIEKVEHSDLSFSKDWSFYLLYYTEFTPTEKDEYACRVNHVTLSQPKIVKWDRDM

T1 sequence (P08637 17-208 limits assumed): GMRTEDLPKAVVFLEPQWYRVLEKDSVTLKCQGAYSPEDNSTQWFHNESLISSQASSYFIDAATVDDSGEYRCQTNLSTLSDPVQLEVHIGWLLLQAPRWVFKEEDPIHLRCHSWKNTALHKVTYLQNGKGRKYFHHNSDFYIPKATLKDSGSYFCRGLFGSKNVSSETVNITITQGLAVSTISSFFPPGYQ

B1: 3S-12 (other)
human IgG1 Fc displayed on yeast as an Aga-2 fusion protein: CDKTHTCPPCPAPELLGGPSVFLFPPKPKDTLMISRTPEVTCVVVDVSHEDPEVKFNWYVDGVEVHNAKTKPREEQYNSTYRVVSVLTVLHQDWLNGKEYKCKVSNKALPAPIEKTIFKAKGQPRKPQVYILPPSRDELTKNQVSLTCLVKGFYPSDIAVEWESNGQPENNYKTTPPVLDSDGSFFLYSKLTVDKSRWQQGNVFSCSVMHEALHNHYTQKSLSLSPGK
notes: member of group m65; also called gp34 escape variant 3S-12 of human IgG1 Fc, S337F, E345K, T350I
For B1, in test [1], the “number printed in the receptor-PE gate (share of yeast cells; unit not given)” value was determined as 39.9. Also, the binding result in test [2] is “no binding”.

B2: 4-7 (other)
human IgG1 Fc displayed on yeast as an Aga-2 fusion protein: CDKTHTCPPCPAPELLGGPSVFLFPPKPKDTLMISRTPEVTCVVVDVSLEDPEVKFNWYVDGVEVHNAKTKPREKQYNSTYRVVSVLTVLHLDWLNGKEYKCKVSNKALPAPIEETISKAKGQPREPQVYTLPPSRDELTKNQVSLTCLVKGFYPSDIAVEWESNGQPENNYKTTPPVLDSDGSFFLYSKLTVDKSRWQQGNVFSCSVMHEALHNHYTQKSLSLSPGK
notes: also called gp34 escape variant 4-7 of human IgG1 Fc, H268L, E294K, Q311L, K334E
Turning to B2, the “number printed in the receptor-PE gate (share of yeast cells; unit not given)” value in test [1] turned out to be 54.2; in test [3], 34.3. In addition, the binding result in test [2] was “no binding”.

B3: 3S-13 (other)
human IgG1 Fc displayed on yeast as an Aga-2 fusion protein: CDKTHTCPPCPAPELLGGPSVFLFPPKPKDTLMISRTPEVTCVVVDVSHEDPEVKFNWYVDGVEVHNAKTKPREEQYNSTYRVVSVLTVLHQDWLNGKEYKCKVSNKALPAPIEETISIAKGQPREPQVYTLPP
notes: member of group m65; also called gp34 escape variant 3S-13 of human IgG1 Fc, K334E, K338I
As for B3, the “number printed in the receptor-PE gate (share of yeast cells; unit not given)” value in test [1] is 43.4. In addition, the binding result in test [2] is recorded as “no binding”.
